The chains are these.
T1: recombinant human IL-23 (hrIL-23), produced at Centocor (human, UniProt P29460 23-328)
T1 sequence 1: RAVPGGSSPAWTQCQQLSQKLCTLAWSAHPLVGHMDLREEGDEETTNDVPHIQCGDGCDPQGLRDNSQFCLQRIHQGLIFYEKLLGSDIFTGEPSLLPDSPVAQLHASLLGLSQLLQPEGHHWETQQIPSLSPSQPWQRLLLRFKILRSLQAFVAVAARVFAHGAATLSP
T1 sequence 2: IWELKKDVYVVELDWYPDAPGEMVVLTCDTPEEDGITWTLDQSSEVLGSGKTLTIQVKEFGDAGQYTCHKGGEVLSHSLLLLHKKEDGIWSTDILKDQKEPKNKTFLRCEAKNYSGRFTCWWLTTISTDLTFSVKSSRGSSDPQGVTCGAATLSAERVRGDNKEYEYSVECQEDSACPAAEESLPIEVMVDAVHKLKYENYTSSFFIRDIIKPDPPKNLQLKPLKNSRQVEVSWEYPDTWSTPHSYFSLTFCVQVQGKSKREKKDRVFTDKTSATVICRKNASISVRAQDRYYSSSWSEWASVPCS

B1: mAb MOR05042 (antibody, IgG1, V domains shown)
VH: QVELVQSGAEVKKPGESLKISCKGSGYSFSNYWIGWVRQMPGKGLEWMGIIPSTYSPSFQGQVTISADKSISTAYLQWSSLKASDTAMYYCARWYYKPFDVWGQGTLVTVSS
VL: DIVLTQPPSVSGAPGQRVTISCTGSSSNIGSGYDVHWYQQLPGTAPKLLIYGNSKRPSGVPDRFSGSKSGTSASLAITGLQSEDEADYYCSSWTPSSVVFGGGTKLTVL
B2: mAb MOR05044 (antibody, IgG1, V domains shown)
VH: QVELVQSGAEVKKPGESLKISCKGSGYSFSNYWIGWVRQMPGKGLEWMGIIPSSTYSPSFQGQVTISADKSISTAYLQWSSLKASDTAMYYCARWYYKPFDVWGQGTLVTVSS
VL: B1 VL
B3: mAb MOR05045 (antibody, IgG1, V domains shown)
VH: B1 VH
VL: B1 VL
B4: mAb MOR05043 (antibody, IgG1, V domains shown)
VH: QVELVQSGAEVKKPGESLKISCKGSGYSFSNYWIGWVRQMPGKGLEWMGIPSTYSPSFQGQVTISADKSISTAYLQWSSLKASDTAMYYCARWYYKPFDVWGQGTLVTVSS
VL: B1 VL
B5: mAb MOR05041 (antibody, IgG1, V domains shown)
VH: B1 VH
VL: B1 VL
B6: mAb MOR05054 (antibody, IgG1, V domains shown)
VH: QVELVESGGGLVQPGGSLRLSCAASGFTFSSFGMSWVRQAPGKGLEWVSITYASVKGRFTISRDNSKNTLYLQMNSLRAEDTAVYYCARYWGTPYLMQFDNWGQGTLVTVSS
VL: DIALTQPASVSGSPGQSITISCTGTSSDVGGYNSVSWYQQHPGKAPKLMIYSVSSRPSGVSNRFSGSKSGNTASLTISGLQAEDEADYYCSSYDTNKPLVVFGGGTKLTVL
B7: mAb MOR05053 (antibody, IgG1, V domains shown)
VH: QVELVESGGGLVQPGGSLRLSCAASGFTFSSFGMSWVRQAPGKGLEWVSNITYYASVKGRFTISRDNSKNTLYLQMNSLRAEDTAVYYCARYWGTPYLMQFDNWGQGTLVTVSS
VL: B6 VL
B8: mAb MOR05040 (antibody, IgG1, V domains shown)
VH: QVELVQSGAEVKKPGSSVKVSCKASGGTFSSNYISWVRQAPGQGLEWMGAYAQKFQGRVTITADESTSTAYMELSSLRSEDTAVYYCARSKKGMYGGWTYPLMMFDLWGQGTLVTVSS
VL: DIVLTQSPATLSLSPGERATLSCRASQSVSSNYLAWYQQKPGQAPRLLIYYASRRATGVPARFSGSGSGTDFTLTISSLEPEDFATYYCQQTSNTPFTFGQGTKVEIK
B9: mAb MOR05058 (antibody, IgG1, V domains shown)
VH: QVELVQSGAEVKKPGESLKISCKGSGYSFSNYWIGWVRQMPGKGLEWMGIIDPSNSYTNYSPSFQGQVTISADKSISTAYLQWSSLKASDTAMYYCARWYYKPFDVWGQGTLVTVSS
VL: DIVLTQPPSVSGAPGQRVTISCTGSSSNIGSGYDVHWYQQLPGTAPKLLIYGNSKRPSGVPDRFSGSKSGTSASLAITGLQSEDEADYYCSSWTPVFGGGTKLTVL
B10: mAb MOR05059 (antibody, IgG1, V domains shown)
VH: B9 VH
VL: B9 VL with S92W, W93T, T94S, P95V

Residue numbers refer to the chain shown, from its start.

For this experiment, the target named is T1, recombinant human IL-23 (hrIL-23), …. Briefly: cell-based or functional assay.
For B1, the “Inhibition of IL-17 production, IC50” value was determined as 1.27 ng/mL. In the case of B2, the “Inhibition of IL-17 production, IC50” value was found to be 14.1 ng/mL. The figure for B3 is 1.4 ng/mL; for B4 it is 14.4 ng/mL. As to B5, the “Inhibition of IL-17 production, IC50” value is 3.01 ng/mL. For the molecule B6, the “Inhibition of IL-17 production, IC50” value worked out at 3.23 ng/mL. The figure for B7 is 4.93 ng/mL. Consider B8, for which the “Inhibition of IL-17 production, IC50” value worked out at 2.64 ng/mL. The value for B9 was 2.85 ng/mL; that for B10 was 10.6 ng/mL.

For the origin of these results see patent publication US20070218064A1 (published 2007).
